Results as given in patent US10995119B2, “Peptide exhibiting hydrolytic activity and use thereof” (Okinawa Institute of Science and Technology School …, priority 2016, dated 2021).
Read-outs that look alike come from different tables or passages of the source.

Legend:
[1] = Autodigestion of the catalytic peptide (HPLC, MS); assay type: biochemical
Description: First, to a buffer solution (Tris-HCl, pH 6.5, final concentration: 100 mmol/l), JAL (final concentration: 0.2 mmol/l) and the fragment peptide of hMMP7 (final concentration 0.05 mmol/l) were added. […] Thereafter, the reaction solution was subjected to HPLC, and the peaks of JAL and the fragment peptide of hMMP7 were examined. HPLC was performed under the following conditions.
Next, the mechanism of autodigestion was examined using various mutants of JAL as hydrolytic peptides. To a reaction solution containing each of the mutants of JAL, a protease inhibitor (trade name: Roche cOmplete, Roche) was added to cause a reaction. One tablet of the protease inhibitor was dissolved in 1 ml of Milli-Q water, and then, 50 μl of the resultant mixture was added to the reaction solution. […] As a result, the autodigestion of all the peptides subjected to the measurement was inhibited (FIG. 16).
Autodigestion in Box B was examined.
JAL-TA9 was reacted in the same manner except that a substrate was not added to examine the autodigestion of JAL-TA9.
The influence of an inhibitor on autodigestion of JAL-TA9 was examined. […] As the protease inhibitor, the serine protease inhibitor AEBSF, which inhibited the autodigestion of JAL 12-22 C19M in the item (6) in Example 4, was used.

Aβ11-29 = Aβ11-29 (Homo sapiens, UniProt P05067); test: Hydrolysis activity against Aβ11-29; settings: for degradation of Aβ-F (Aβ11-29): Example 15, peptide 0.2 mmol/l
Description: (§2) Further, any change in activity caused by addition of human serum albumin (HSA, Wako Pure Chemical Industries, Ltd., final concentration 0.025%) also was measured.
(§3) As substrates, Aβ42 in the form of soluble powder (authentic sample, Peptide Institute Inc.) and fragment peptides thereof, namely, Aβ1-20, Aβ11-29, and soluble Aβ28-42, were used. […] In the case of MS analysis, the MS analysis was performed after applying 20 μl of the reaction solution to HPLC and collecting an aliquot of the peak.
As a substrate, Aβ11-29, which is a fragment peptide of Aβ42, was used. […] In the case of MS analysis, the MS analysis was performed after applying 20 μl of the reaction solution after the reaction for 6 days to HPLC and collecting an aliquot of the peak.
(§4) The present experiment examined activity against Aβ-Fs in Example 7.
The reaction solution V shown in FIG. 52 was incubated at 37° C. for a predetermined time, and autodigestion of ANA-YA4 (YRMI) and cleavage of Aβ11-29 were examined.
A reaction solution VI shown in FIG. 52 was incubated at 37° C. for a predetermined time, and cleavage of Aβ1-20 and Aβ11-29 by ANA-SA5 was examined.
(§5) As substrates, the same Aβ1-20 and Aβ11-29 as used in Example 7 were used.
The present example examined autodigestion and activity against Aβ-F of JAL 12-17 (YKGSGF) and JAL 12-16 (YKGSG). […] As a substrate, the same Aβ11-29 as used in Example 7 was used. The autodigestion was examined by causing the reaction in the same manner, except that the substrate was not added.

Aβ1-20 = Aβ1-20 (Homo sapiens, UniProt P05067); test: Hydrolysis activity against Aβ1-20
Description: as §2, §3, §4, §5

PrP 175-189 = PrP 175-189 (Homo sapiens, UniProt P04156)
[2] = molecular target: soluble Aβ1-42 (Aβ42 authentic sample) (Homo sapiens, UniProt P05067); test: Hydrolysis activity against soluble Aβ1-42 (authentic sample)
Description: as §3
Aβ42 was used as a substrate. […] In the case of MS analysis, the MS analysis was performed after applying 20 μl of the reaction solution after the reaction for 7 days to HPLC and collecting an aliquot of the peak.

SOD1 2-38 = SOD1 2-38 (Homo sapiens, UniProt P00441); test: Hydrolysis activity against SOD1 2-38; assay type: biochemical; settings: Example 3 (1); substrate SOD1 2-38 or SOD1 2-12
Description: As a control, physiological saline (0.9 w/v %) was used instead of the buffer solution. […] Also, it is considered that physiological saline is suitable for storage of JAL before use, for example.
Next, an experiment was conducted to consider an optimal pH for activity using JAL as the hydrolytic peptide and SOD1 2-38 as a substrate.
Metal ions to be added to a reaction solution were Zn^2+, Ca^2+, Co^2+, or combinations thereof. The concentrations of the metal ions in the respective reaction solutions were as follows: 10 mmol/l for Ca^2+; and 5 μmol/l for the other metal ions.
(§1) In JAL 1-22 C19M and JAL 7-22 C19M, Cys residues contained in JAL form S—S bonds during a reaction, and this makes fragment analysis difficult. On this account, JAL 1-22 and JAL 7-22 were modified so as to substitute Cys residues by Met.

Aβ1-19 = Aβ1-19 (Homo sapiens, UniProt P05067); test: Hydrolysis activity against Aβ1-19
Description: The present experiment was conducted to consider an optimal concentration of a hydrolytic peptide relative to a substrate, using JAL 7-22 C19M as the hydrolytic peptide and Aβ1-19 as the substrate. The measurement of activity was performed in the same manner as in the above item (1), except that the incubation time was set to 0 days, 3 days, or 5 days.

SOD1 2-12 = SOD1 2-12 (Homo sapiens, UniProt P00441); test: Hydrolysis activity against SOD1 2-12; assay type: biochemical; settings: Example 3 (1); substrate SOD1 2-38 or SOD1 2-12
Source text: as §1

Aβ28-42 = Aβ28-42 (Homo sapiens, UniProt P05067); test: Hydrolysis activity against Aβ28-42; assay type: biochemical; settings: reaction solution II; 1 day, 5 days
[3] = Example 5 (1), JAL 14-18 and mutants
[4] = Example 9, chimera 0.2 mmol/l, PBS, HSA
[5] = reaction solution II, 1 day, 5 days
[6] = Example 14, peptide 0.2 mmol/l, PBS, HSA
[7] = Example 15, substrate not added
[8] = reaction solution VI, reaction for 1 day
[9] = reaction solution VI, reaction for 5 days

Sequence of SOD1 2-38 (P00441 2-38 limits assumed): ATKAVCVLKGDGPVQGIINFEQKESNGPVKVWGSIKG

For AISSSMHSLYGLGLGS [Tob1 221-236], the autodigestion ([1]; Example 6, HSA added, 5 days) was “fragments suggesting autodigestion of Tob1 221-236 were observed” and the “hydrolysis activity against Aβ11-29” value (Aβ11-29; Example 6 (3)) was “exhibited activity”.

In the case of AKGSGFRMI, the “hydrolysis activity against Aβ11-29” value (Aβ11-29; Example 3 (6)) was “exhibited activity”.

In the case of APEKPYKGSGFRMIHA, the “hydrolysis activity against Aβ11-29” value (Aβ11-29; Example 3 (6)) was “exhibited activity”.

For DSGFR, the “hydrolysis activity against Aβ1-20” value (Aβ1-20; [3]) was “strong activity”.

In the case of EKPYKGSGFRMI, the “hydrolysis activity against Aβ11-29” value (Aβ11-29; Example 3 (6)) was “exhibited activity”.

In the case of FPEKPCKGSGYRCIRI [BTG1 7-22], the “hydrolysis activity against PrP 175-189” value (PrP 175-189) was “exhibited activity”.

With “FVIFLDVKHFSPEDLTVK-AA-YKGSGFRMI (FVIFLDVKHFSPEDLTVKAAYKGSGFRMI) [chimera peptide]” the “degradation of Aβ42 (HPLC)” value [2, 4] was “degraded Aβ4211-29 from Day 1” and the “degradation of Aβ11-29 (HPLC)” value (Aβ11-29; [4]) was “degraded Aβ11-29”.

In the case of GSGFR, the “hydrolysis activity against Aβ1-20” value (Aβ1-20; Example 3 (2), (6)) was “exhibited activity” and the “hydrolysis activity against Aβ1-20” value (Aβ1-20; [3]) was “strong activity”.

With GSGHR the “hydrolysis activity against Aβ11-29” value (Aβ11-29; [3]) was “strong activity”.

In the case of GSGQR, the “hydrolysis activity against Aβ11-29” value (Aβ11-29; [3]) was “strong activity”.

For GSGVR, the “hydrolysis activity against Aβ1-20” value (Aβ1-20; [3]) was “strong activity”.

With GSGYR the “hydrolysis activity against Aβ1-20” value (Aβ1-20; [3]) was “strong activity”.

With HSDCPSKGQAFRCIRI [BTG4 7-22] the “hydrolysis activity against PrP 175-189” value (PrP 175-189) was “exhibited activity”.

With KYEGHWYPEKPYKGSGFRMIHI [JAL 1-22 C19M] the “hydrolysis activity of JAL mutants” value (SOD1 2-38) was “exhibited hydrolysis activity”, the “hydrolysis activity against Aβ1-19” value (Aβ1-19; CH3OH or CH3CN 10%, 3 or 5 days) was “did not exhibit activity” and the “hydrolysis activity against Aβ1-19” value (Aβ1-19; DMSO 10%, 3 or 5 days) was “exhibited activity”. The “hydrolysis activity of JAL mutants” value (SOD1 2-12) was “exhibited hydrolysis activity”.

In the case of SKGQA [ANA-SA5], the “types of fragments of Aβ1-20 detected” value (Aβ1-20; reaction for 5 days) was 12 and the “types of fragments of Aβ11-29 detected” value (Aβ11-29; reaction for 5 days) was 13.

For SKGQAYRMI [ANA-TA9], the “cleavage of Aβ-Fs” value (Aβ1-20; [5]) was “could cleave all the Aβ-Fs”, the “cleavage of Aβ-Fs” value (Aβ28-42) was “could cleave all the Aβ-Fs” and the “cleavage of Aβ42” value ([2]; authentic sample Aβ42, reaction solution III) was “could cleave Aβ42”. For the same substance, the autodigestion ([1]; reaction solution I, 37° C.) was “autodigestion of ANA-TA9 was observed”, the “autodigestion in presence of protease inhibitor” value ([1]; reaction solution IV, 6 hours) was “inhibited by the protease inhibitor” and the “cleavage of Aβ-Fs” value (Aβ11-29; [5]) was “could cleave all the Aβ-Fs”.

With WIDPFEVSYQIGE [Box B Tob1 8-20] the “cleavage sites in Aβ-Fs (MS)” value (Aβ1-20; Example 14) was “cleaved at a plurality of sites”, the “degradation of Aβ-Fs (HPLC)” value (Aβ1-20; [6]) was “degraded Aβ-Fs” and the autodigestion ([1]; Example 6, HSA added, 5 days) was “fragments suggesting the occurrence of autodigestion were observed”. For the same substance, the “cleavage sites in Aβ-Fs (MS)” value (Aβ11-29; Example 14) was “cleaved at a plurality of sites” and the “degradation of Aβ-Fs (HPLC)” value (Aβ11-29; [6]) was “degraded Aβ-Fs”.

In the case of WVDPYEVSYRIGE [Box B BTG1 8-20], the autodigestion ([1]; Example 6, HSA added, 5 days) was “fragments suggesting the occurrence of autodigestion were observed” and the “hydrolysis activity against Aβ11-29” value (Aβ11-29; Example 6 (3)) was “exhibited activity”.

With YKGAGFR the “hydrolysis activity against Aβ1-20” value (Aβ1-20; Example 3 (2), (6)) was “exhibited activity”.

For YKGSG [JAL 12-16], the autodigestion [1, 7] was “digested themselves” and the “degradation of Aβ-F (Aβ11-29)” value (Aβ11-29; PBS, HSA) was “degraded Aβ-F”.

With YKGSGF [JAL 12-17] the autodigestion [1, 7] was “digested themselves” and the “degradation of Aβ-F (Aβ11-29)” value (Aβ11-29; PBS, HSA) was “degraded Aβ-F”.

In the case of YKGSGFR [JAL (Tob1) 12-18], the “hydrolysis activity against Aβ1-20” value (Aβ1-20; Example 3 (2), (6)) was “exhibited activity”.

In the case of YKGSGFRMI [JAL 12-20 C19M], the “autodigestion in presence of protease inhibitor” value ([1]; AEBSF, with Aβ11-29, 1 day) was “inhibited by AEBSF”, the “hydrolysis activity against Aβ11-29” value (Aβ11-29; Example 3 (6)) was “exhibited activity” and the “hydrolysis activity against Aβ11-29” value (Aβ11-29; Example 4 (5)) was “strong activity”.

For YKGSGFRMIHA, the “hydrolysis activity against Aβ11-29” value (Aβ11-29; Example 3 (6)) was “exhibited activity”.

In the case of YPEKPLKGSGFRCVHI [Tob2 7-22], the “hydrolysis activity against PrP 175-189” value (PrP 175-189) was “exhibited activity” and the “hydrolysis activity against PrP 175-189” value (PrP 175-189; Cu2+ further added to HSA) was “exhibited activity”.

With YPEKPSKGQAYRCIRV [BTG3 7-22] the “hydrolysis activity against PrP 175-189” value (PrP 175-189) was “exhibited activity” and the “hydrolysis activity against PrP 175-189” value (PrP 175-189; Cu2+ further added to HSA) was “exhibited activity”.

In the case of YPEKPYKGSGFRCIHI [JAL 7-22], the “hydrolysis activity of JAL mutants” value (SOD1 2-38) was “exhibited hydrolysis activity”, the “hydrolysis activity against Aβ1-19” value (Aβ1-19; high peptide concentration) was “lowered” and the “hydrolysis activity against Aβ1-19” value (Aβ1-19; substrate:peptide 1:1 (0.05 mmol/l) and 1:4 (0.2 mmol/l), 3 or 5 days) was “strong activity”. The “hydrolysis activity of JAL mutants” value (SOD1 2-12) was “exhibited hydrolysis activity”.

With YRMI [ANA-SA4] the “cleavage of Aβ1-20” value (Aβ1-20; reaction solution V, 37° C.) was “degraded Aβ1-20”, the Aβ1-20 peak remaining (Aβ1-20; [8]) was 49.6% and the Aβ1-20 peak (Aβ1-20; [9]) was “almost disappeared”. The autodigestion ([1]; reaction solution V, 37° C.) was “digested itself”, the “cleavage of Aβ11-29” value (Aβ11-29; reaction solution V, 37° C.) was “degraded Aβ11-29” and the Aβ11-29 peak remaining (Aβ11-29; [8]) was 72%. For the same substance, the Aβ11-29 peak (Aβ11-29; [9]) was “almost disappeared”.
